# Measured values as given in patent US12630600B2 (MEDIMMUNE LIMITED, priority 2022, dated 2026).
# Starred links: 1 amine or outer side, 2 acyl side, 3 side chain; linkers in the order of their positions; H or OH if unused. Non-standard residues stand in square brackets, D forms with d. Groups on a side chain read outwards from the residue. Primed or numbered codes have the meaning given here. No end group written: not given here. *: point of attachment. C20 diacid = O=C(O)CCCCCCCCCCCCCCCCCCC(=O)*; C18 diacid = O=C(O)CCCCCCCCCCCCCCCCC(=O)*; γGlu = O=C(O)[C@H](CCC(=O)[*:2])N[*:1]; Palmitoyl = CCCCCCCCCCCCCCCC(=O)*; αMeF = C[C@](N)(Cc1ccccc1)C(=O)O; Myristoyl = CCCCCCCCCCCCCC(=O)*; PEG2′ = polyethylene glycol 2; αMeS = C[C@](N)(CO)C(=O)O; AEEA = NCCOCCOCC(=O)O; Aib = CC(C)(N)C(=O)O
# B1: Peptide 134 (peptide)
# peptide: H[αMeS]QGS[αMeF]TSDVSKILDSK([PEG2′-PEG2′-γGlu-Palmitoyl])AAQD[αMeF]VQ[Aib]IINT-NH2
# B2: Peptide 480 (peptide)
# peptide: H[Aib]QGTFTSDVSK[αMeF]LDTK([AEEA-AEEA-γGlu-C18 diacid])RARDFVQWLLE[Aib]K-NH2
# modifications: N-terminus assumed
# SMILES: CC(C)C[C@H](NC(=O)[C@H](Cc1c[nH]c2ccccc12)NC(=O)[C@H](CCC(N)=O)NC(=O)[C@@H](NC(=O)[C@H](Cc1ccccc1)NC(=O)[C@H](CC(=O)O)NC(=O)[C@H](CCCNC(=N)N)NC(=O)[C@H](C)NC(=O)[C@H](CCCNC(=N)N)NC(=O)[C@H](CCCCNC(=O)COCCOCCNC(=O)COCCOCCNC(=O)CC[C@H](NC(=O)CCCCCCCCCCCCCCCCC(=O)O)C(=O)O)NC(=O)[C@@H](NC(=O)[C@H](CC(=O)O)NC(=O)[C@H](CC(C)C)NC(=O)[C@](C)(Cc1ccccc1)NC(=O)[C@H](CCCCN)NC(=O)[C@H](CO)NC(=O)[C@@H](NC(=O)[C@H](CC(=O)O)NC(=O)[C@H](CO)NC(=O)[C@@H](NC(=O)[C@H](Cc1ccccc1)NC(=O)[C@@H](NC(=O)CNC(=O)[C@H](CCC(N)=O)NC(=O)C(C)(C)NC(=O)[C@@H](N)Cc1c[nH]cn1)[C@@H](C)O)[C@@H](C)O)C(C)C)[C@@H](C)O)C(C)C)C(=O)N[C@@H](CC(C)C)C(=O)N[C@@H](CCC(=O)O)C(=O)NC(C)(C)C(=O)N[C@@H](CCCCN)C(N)=O
# B3: Peptide 511 (peptide)
# peptide: H[Aib]QGTFTSDVSK[αMeF]LDTK([AEEA-AEEA-γGlu-C20 diacid])RARDFVRWLL[Aib]E-NH2
# modifications: N-terminus assumed
# SMILES: CC(C)C[C@H](NC(=O)[C@H](Cc1c[nH]c2ccccc12)NC(=O)[C@H](CCCNC(=N)N)NC(=O)[C@@H](NC(=O)[C@H](Cc1ccccc1)NC(=O)[C@H](CC(=O)O)NC(=O)[C@H](CCCNC(=N)N)NC(=O)[C@H](C)NC(=O)[C@H](CCCNC(=N)N)NC(=O)[C@H](CCCCNC(=O)COCCOCCNC(=O)COCCOCCNC(=O)CC[C@H](NC(=O)CCCCCCCCCCCCCCCCCCC(=O)O)C(=O)O)NC(=O)[C@@H](NC(=O)[C@H](CC(=O)O)NC(=O)[C@H](CC(C)C)NC(=O)[C@](C)(Cc1ccccc1)NC(=O)[C@H](CCCCN)NC(=O)[C@H](CO)NC(=O)[C@@H](NC(=O)[C@H](CC(=O)O)NC(=O)[C@H](CO)NC(=O)[C@@H](NC(=O)[C@H](Cc1ccccc1)NC(=O)[C@@H](NC(=O)CNC(=O)[C@H](CCC(N)=O)NC(=O)C(C)(C)NC(=O)[C@@H](N)Cc1c[nH]cn1)[C@@H](C)O)[C@@H](C)O)C(C)C)[C@@H](C)O)C(C)C)C(=O)N[C@@H](CC(C)C)C(=O)NC(C)(C)C(=O)N[C@@H](CCC(=O)O)C(N)=O
# B4: Peptide 461 (peptide)
# peptide: H[Aib]QGTFTSDVSK[αMeF]LDRK([AEEA-AEEA-γGlu-C18 diacid])RAQDFVRWLLAE-NH2
# modifications: N-terminus assumed
# SMILES: CC(C)C[C@H](NC(=O)[C@H](CC(C)C)NC(=O)[C@H](Cc1c[nH]c2ccccc12)NC(=O)[C@H](CCCNC(=N)N)NC(=O)[C@@H](NC(=O)[C@H](Cc1ccccc1)NC(=O)[C@H](CC(=O)O)NC(=O)[C@H](CCC(N)=O)NC(=O)[C@H](C)NC(=O)[C@H](CCCNC(=N)N)NC(=O)[C@H](CCCCNC(=O)COCCOCCNC(=O)COCCOCCNC(=O)CC[C@H](NC(=O)CCCCCCCCCCCCCCCCC(=O)O)C(=O)O)NC(=O)[C@H](CCCNC(=N)N)NC(=O)[C@H](CC(=O)O)NC(=O)[C@H](CC(C)C)NC(=O)[C@](C)(Cc1ccccc1)NC(=O)[C@H](CCCCN)NC(=O)[C@H](CO)NC(=O)[C@@H](NC(=O)[C@H](CC(=O)O)NC(=O)[C@H](CO)NC(=O)[C@@H](NC(=O)[C@H](Cc1ccccc1)NC(=O)[C@@H](NC(=O)CNC(=O)[C@H](CCC(N)=O)NC(=O)C(C)(C)NC(=O)[C@@H](N)Cc1c[nH]cn1)[C@@H](C)O)[C@@H](C)O)C(C)C)C(C)C)C(=O)N[C@@H](C)C(=O)N[C@@H](CCC(=O)O)C(N)=O
# B5: Peptide 463 (peptide)
# peptide: H[Aib]QGTFTSDVSK[αMeF]LDSK([AEEA-AEEA-γGlu-γGlu-C18 diacid])RAQDFVQWLL[Aib]T-NH2
# modifications: N-terminus assumed
# SMILES: CC(C)C[C@H](NC(=O)[C@H](Cc1c[nH]c2ccccc12)NC(=O)[C@H](CCC(N)=O)NC(=O)[C@@H](NC(=O)[C@H](Cc1ccccc1)NC(=O)[C@H](CC(=O)O)NC(=O)[C@H](CCC(N)=O)NC(=O)[C@H](C)NC(=O)[C@H](CCCNC(=N)N)NC(=O)[C@H](CCCCNC(=O)COCCOCCNC(=O)COCCOCCNC(=O)CC[C@H](NC(=O)CC[C@H](NC(=O)CCCCCCCCCCCCCCCCC(=O)O)C(=O)O)C(=O)O)NC(=O)[C@H](CO)NC(=O)[C@H](CC(=O)O)NC(=O)[C@H](CC(C)C)NC(=O)[C@](C)(Cc1ccccc1)NC(=O)[C@H](CCCCN)NC(=O)[C@H](CO)NC(=O)[C@@H](NC(=O)[C@H](CC(=O)O)NC(=O)[C@H](CO)NC(=O)[C@@H](NC(=O)[C@H](Cc1ccccc1)NC(=O)[C@@H](NC(=O)CNC(=O)[C@H](CCC(N)=O)NC(=O)C(C)(C)NC(=O)[C@@H](N)Cc1c[nH]cn1)[C@@H](C)O)[C@@H](C)O)C(C)C)C(C)C)C(=O)N[C@@H](CC(C)C)C(=O)NC(C)(C)C(=O)N[C@H](C(N)=O)[C@@H](C)O
# B6: Peptide 135 (peptide)
# peptide: H[αMeS]QGS[αMeF]TSDVSKILDSK([PEG2′-PEG2′-γGlu-Myristoyl])AAQD[αMeF]VQ[Aib]IINT-NH2
# B7: Peptide 489 (peptide)
# peptide: H[Aib]QGTFTSDVSK[αMeF]LDTK([AEEA-AEEA-γGlu-C18 diacid])RARDFVQWLL[Aib]TE-NH2
# modifications: N-terminus assumed
# SMILES: CC(C)C[C@H](NC(=O)[C@H](Cc1c[nH]c2ccccc12)NC(=O)[C@H](CCC(N)=O)NC(=O)[C@@H](NC(=O)[C@H](Cc1ccccc1)NC(=O)[C@H](CC(=O)O)NC(=O)[C@H](CCCNC(=N)N)NC(=O)[C@H](C)NC(=O)[C@H](CCCNC(=N)N)NC(=O)[C@H](CCCCNC(=O)COCCOCCNC(=O)COCCOCCNC(=O)CC[C@H](NC(=O)CCCCCCCCCCCCCCCCC(=O)O)C(=O)O)NC(=O)[C@@H](NC(=O)[C@H](CC(=O)O)NC(=O)[C@H](CC(C)C)NC(=O)[C@](C)(Cc1ccccc1)NC(=O)[C@H](CCCCN)NC(=O)[C@H](CO)NC(=O)[C@@H](NC(=O)[C@H](CC(=O)O)NC(=O)[C@H](CO)NC(=O)[C@@H](NC(=O)[C@H](Cc1ccccc1)NC(=O)[C@@H](NC(=O)CNC(=O)[C@H](CCC(N)=O)NC(=O)C(C)(C)NC(=O)[C@@H](N)Cc1c[nH]cn1)[C@@H](C)O)[C@@H](C)O)C(C)C)[C@@H](C)O)C(C)C)C(=O)N[C@@H](CC(C)C)C(=O)NC(C)(C)C(=O)N[C@H](C(=O)N[C@@H](CCC(=O)O)C(N)=O)[C@@H](C)O
# B8: Peptide 140 (peptide)
# peptide: H[Aib]QGTFTSDVSK[αMeF]LDTK([AEEA-AEEA-γGlu-C18 diacid])RAQDFVRWLLE[Aib]G-OH
# modifications: N-terminus assumed
# SMILES: CC(C)C[C@H](NC(=O)[C@H](Cc1c[nH]c2ccccc12)NC(=O)[C@H](CCCNC(=N)N)NC(=O)[C@@H](NC(=O)[C@H](Cc1ccccc1)NC(=O)[C@H](CC(=O)O)NC(=O)[C@H](CCC(N)=O)NC(=O)[C@H](C)NC(=O)[C@H](CCCNC(=N)N)NC(=O)[C@H](CCCCNC(=O)COCCOCCNC(=O)COCCOCCNC(=O)CC[C@H](NC(=O)CCCCCCCCCCCCCCCCC(=O)O)C(=O)O)NC(=O)[C@@H](NC(=O)[C@H](CC(=O)O)NC(=O)[C@H](CC(C)C)NC(=O)[C@](C)(Cc1ccccc1)NC(=O)[C@H](CCCCN)NC(=O)[C@H](CO)NC(=O)[C@@H](NC(=O)[C@H](CC(=O)O)NC(=O)[C@H](CO)NC(=O)[C@@H](NC(=O)[C@H](Cc1ccccc1)NC(=O)[C@@H](NC(=O)CNC(=O)[C@H](CCC(N)=O)NC(=O)C(C)(C)NC(=O)[C@@H](N)Cc1c[nH]cn1)[C@@H](C)O)[C@@H](C)O)C(C)C)[C@@H](C)O)C(C)C)C(=O)N[C@@H](CC(C)C)C(=O)N[C@@H](CCC(=O)O)C(=O)NC(C)(C)C(=O)NCC(=O)O
# B9: Peptide 458 (peptide)
# peptide: H[Aib]QGTFTSDVSK[αMeF]LDTK([AEEA-AEEA-γGlu-γGlu-C20 diacid])RARDFVQWLLE[Aib]G-NH2
# B10: Peptide 35 (peptide)
# peptide: H[Aib]QGTFTSDVSK[αMeF]LDTK([AEEA-AEEA-γGlu-C18 diacid])RAQDFVQWLL[Aib]T-OH
# modifications: N-terminus assumed
# SMILES: CC(C)C[C@H](NC(=O)[C@H](Cc1c[nH]c2ccccc12)NC(=O)[C@H](CCC(N)=O)NC(=O)[C@@H](NC(=O)[C@H](Cc1ccccc1)NC(=O)[C@H](CC(=O)O)NC(=O)[C@H](CCC(N)=O)NC(=O)[C@H](C)NC(=O)[C@H](CCCNC(=N)N)NC(=O)[C@H](CCCCNC(=O)COCCOCCNC(=O)COCCOCCNC(=O)CC[C@H](NC(=O)CCCCCCCCCCCCCCCCC(=O)O)C(=O)O)NC(=O)[C@@H](NC(=O)[C@H](CC(=O)O)NC(=O)[C@H](CC(C)C)NC(=O)[C@](C)(Cc1ccccc1)NC(=O)[C@H](CCCCN)NC(=O)[C@H](CO)NC(=O)[C@@H](NC(=O)[C@H](CC(=O)O)NC(=O)[C@H](CO)NC(=O)[C@@H](NC(=O)[C@H](Cc1ccccc1)NC(=O)[C@@H](NC(=O)CNC(=O)[C@H](CCC(N)=O)NC(=O)C(C)(C)NC(=O)[C@@H](N)Cc1c[nH]cn1)[C@@H](C)O)[C@@H](C)O)C(C)C)[C@@H](C)O)C(C)C)C(=O)N[C@@H](CC(C)C)C(=O)NC(C)(C)C(=O)N[C@H](C(=O)O)[C@@H](C)O
# Biological target: human GLP-1 receptor (human, UniProt P43220)
# Test: cell-based or functional assay
row,Binder,cAMP production EC50 [pM]
1,B1,0.592
2,B2,12.6
3,B3,118
4,B4,167
5,B5,274
6,B6,0.407
7,B7,22.8
8,B8,22.7

# Biological target: human glucagon receptor (human, UniProt P47871)
# Test: cell-based or functional assay
row,Binder,cAMP production EC50 [pM]
1,B1,15
2,B9,385
3,B10,335
4,B6,15
